Results published in the DeepSol protein solubility set.

Assay: soluble on expression in E. coli; label from the status in PepcDB or PDB records

Sequence | soluble on expression in E. coli
MPFHLALGLSNCEQIYEPGGTIEGYVTFDLRESVKVKAIRISAEGLATTKWLLSESSKSSHGRSREVSYSAKVTYLDEEQMVWKPSEGHSKSSVFPGIHVYPFKFQIPIGVPPSFEGDHGNIRYHMKATVERPWKTNRSVTRYLTILPPKDLNKEVLASEETSSWKSKKIRIPKKGYVPGETISIETNIDNMSSRPILKTECYLIQQCRFLAYRYGISGPTDGRRASSLSENDRYLSRKRDEIKIVSVIHEMHIEPRTEHKAKMRLKIPCTCPTFDSTLIHVEYFVVVKLHVKCRMRNTVKAECPIIIGSKPLADEHVDPRTPTYQEVATFSALTHRSMMSVDEKLTPKYVYYPKYGKSRDDEADEPPSLTDLQLPPIDSLSDDD | not soluble
MAKETVCVTGANGFIGSWIIRTLIEKGYTKIHASIYPGSDPTHLLQLPGSDSKIKIFEADLLDSDAISRAIDGCAGVFHVASPCTLDPPVDPEKELVEPAVKGTINVLEAAKRFNVRRVVITSSISALVPNPNWPEKVPVDESSWSDLDFCKSRQKWYPISKTLAEKAAWEFSEKHGTNIVTIHPSTCLGPLLQPNLNASCAVLLQLLQGSTETQEHHWLGVVHVKDVAKGHVMLFETPDASGRFLCTNGIYQFSEFAALVSKLFPEFAVHKFDKETQPGLTSCNDAAKRLIELGLVFTAVEDAVKETVQSLRDKGFL | soluble
MAHRRKFGGGRGEAVAKAVGIKGSALPTVIDATAGLGRDAFVLAAIGCQVRLVERHPVVFLLLQDGLNRAYQDEEIGEMLQQNLHLLNVQHINELDPNSDYADVVYLDPMYPHKQKSALVKKEMRVFQHLVGADLDADELLLPALQLAKKRVVVKRPDYAEFLCGKQPHFSHETKNHRFDIYMGASQCLEHHHHHH | not soluble
MPAPLWSPSAERIAASRMEAFRRFVNQRHALGLVDYPALHAWSVQRREAFWQAIVDFFEVRFQQPPRAVLEEGAQMPSARWFPGATLNFAEHLLRRRDDAPALIAVSEDGRREVLSHAELARHVAGLQKRLAALGIGPGDRVAALMPNTWQTVVGMLATASLGATWSSCSPDFGTQGVIDRFGQIEPRVLIACAGYRYAGKSLDLTAKLNEVLAGLPGLEQLLVVPYDRPQAQPQDYRCQAQVALWDGFYQAEGEPVFTPVPFEQPLYILYSSGTTGVPKCIVHATGGVLLQHLKEHGLHTDLGDGDRLFYYTTCGWMMWNWLASGLAVGASLVLYDGSPFHPGPERLLDLIDAEDIAVFGASAKYLAALEKAGMRPRHSHRLDSLRTLLSTGSPLAHESFDYVYRELKSDLCLSSISGGTDIVSCFAIGNPVLPVWRGELQCKALGMAVEIWDDDGRRLASGKGELVCTRHFPSIPLGFWNDPDGTRFHDAYFASFPGVWAHGDYAEETVHGGLVIHGRSDAVLNPGGVRIGTAEIYRQVEKVEEVLESIAIGQDWQGDVRVLLFVRLRDGVRLDEPLRERIRQTIRANATPRHVPAKIIQVADIPRTLSGKIVELAVRNVIHGRPVKNTDALANPQALELYRDLAEL | not soluble
MAHHHHHHMPNDTLQVKLSQDSLFFPLPFTNATIDNVVQVKNMLPVVQGDPKANVISFKILSRVQNRYSVHPPVGFIGAGEHATIIFSFNPEHVKMAKNPEERELPTEATKDAIHVDFAVVDAPSVQTALAHWVPGSKETKASWEVVADASRFWKQRGQVKENSPITMRYKLRCVFATRNNVPDSLVMCMKEEGGCCKLITDGAAPLPRTRPPMTSSTQPQNTAPPEAPPHRYSESQRTTPTTRSPRSDACCTPCAIGPPGIFTMGPGAAAAASAPSASPPSSAPTQKSKTSAGITCGDITLKSIAEEVLNYKLSYRAVGVLLFLTLLCGLLDQSNLLTWLIAKQ | not soluble
MISSMTGFGRSKVESDTFQITVEMKSVNHRFLEMSIRLPKQMMVFEDKIRKIIAQQVRRGRIEVSISIAGEGLVERKLSVNWSLLEQYQSMMEDIKGKFQLQDSITLEQLMAMPEVTAIEEIENVNEHFENSLYEAVRQAAHMLKTMRDGEGERLHKDIAYRLQEISNCVNAIIPHAPIVTQKYRERLENRLKELHNQDLDEQRLLTEVAIFAERCDIHEELVRLQSHLEQFRETLQIEEPVGRKMDFIVQEMHREINTIGSKANDLTISKYVVEMKNNLEKIREQVQNIE | not soluble
HPSIFAATDGHSSRLDVTMGMSYNNRFFASLMYRPTQAVGVSLGMQLGKFYAGYAFEWPTSVLAKASWGSHELLVSYSFPLSNTKNRDAKYKSIRFL | not soluble
